Laboratory results taken from article doi:10.1101/2021.03.03.433707 (bioRxiv, 2021).
Where a chain is given by its changes, count along the chain named.

T1: MukB long hinge (LH, 568-863) (E. coli, UniProt P22523 568-863)
T1 sequence (looked up): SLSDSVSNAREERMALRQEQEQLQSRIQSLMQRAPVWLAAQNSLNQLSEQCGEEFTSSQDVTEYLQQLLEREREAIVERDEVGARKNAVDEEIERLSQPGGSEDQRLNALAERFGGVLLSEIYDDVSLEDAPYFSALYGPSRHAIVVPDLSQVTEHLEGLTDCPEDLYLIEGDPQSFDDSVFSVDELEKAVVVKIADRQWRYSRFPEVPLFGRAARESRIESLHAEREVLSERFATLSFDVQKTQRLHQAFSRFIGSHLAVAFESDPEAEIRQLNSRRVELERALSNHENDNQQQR

T2: MukB, full length, wild type (E. coli, UniProt P22523 1-1486)
T2 sequence (looked up): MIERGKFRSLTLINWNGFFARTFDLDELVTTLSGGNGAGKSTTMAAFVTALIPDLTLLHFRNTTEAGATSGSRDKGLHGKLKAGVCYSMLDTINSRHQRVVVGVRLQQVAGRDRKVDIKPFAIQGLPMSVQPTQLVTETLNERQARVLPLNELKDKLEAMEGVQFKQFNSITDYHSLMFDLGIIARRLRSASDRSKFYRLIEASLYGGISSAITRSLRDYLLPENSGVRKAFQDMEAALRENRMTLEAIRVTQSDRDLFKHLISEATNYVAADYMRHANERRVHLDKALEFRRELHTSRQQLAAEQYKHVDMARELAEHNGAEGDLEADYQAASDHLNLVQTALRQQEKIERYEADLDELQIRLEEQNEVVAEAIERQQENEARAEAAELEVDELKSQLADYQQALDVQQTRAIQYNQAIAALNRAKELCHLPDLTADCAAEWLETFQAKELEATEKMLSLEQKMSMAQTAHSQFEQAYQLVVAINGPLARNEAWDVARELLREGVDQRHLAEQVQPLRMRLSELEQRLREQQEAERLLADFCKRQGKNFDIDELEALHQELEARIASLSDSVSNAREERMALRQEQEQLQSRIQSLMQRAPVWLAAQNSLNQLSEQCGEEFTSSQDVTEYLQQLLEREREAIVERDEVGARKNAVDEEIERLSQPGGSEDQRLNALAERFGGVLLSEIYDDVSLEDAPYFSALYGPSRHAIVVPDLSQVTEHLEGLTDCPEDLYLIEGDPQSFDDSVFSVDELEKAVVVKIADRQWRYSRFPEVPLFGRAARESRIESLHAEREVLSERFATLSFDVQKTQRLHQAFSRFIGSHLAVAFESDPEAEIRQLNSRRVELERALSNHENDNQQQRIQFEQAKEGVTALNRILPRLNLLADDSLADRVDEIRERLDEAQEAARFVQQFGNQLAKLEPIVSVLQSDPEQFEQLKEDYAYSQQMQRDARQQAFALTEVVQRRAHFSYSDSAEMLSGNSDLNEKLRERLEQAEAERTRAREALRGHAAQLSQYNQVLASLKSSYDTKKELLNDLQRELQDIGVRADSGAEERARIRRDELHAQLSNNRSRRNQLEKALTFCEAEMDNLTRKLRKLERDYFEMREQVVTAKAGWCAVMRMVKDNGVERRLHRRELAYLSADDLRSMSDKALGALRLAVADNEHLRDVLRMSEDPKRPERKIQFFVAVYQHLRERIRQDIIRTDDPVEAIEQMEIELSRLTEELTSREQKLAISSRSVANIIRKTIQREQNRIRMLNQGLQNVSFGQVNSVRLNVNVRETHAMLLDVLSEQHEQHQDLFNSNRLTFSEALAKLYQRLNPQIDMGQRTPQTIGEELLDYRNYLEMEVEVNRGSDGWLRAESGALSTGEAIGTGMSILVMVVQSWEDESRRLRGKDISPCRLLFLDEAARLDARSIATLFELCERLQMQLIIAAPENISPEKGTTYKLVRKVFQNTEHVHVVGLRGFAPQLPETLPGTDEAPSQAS

T3: MukB^KKK (full length MukB D697K D745K E753K) (E. coli, UniProt P22523 1-1486, D697K | D745K | E753K)
T3 sequence (looked up): T2 sequence (looked up) with D697K, D745K, E753K

B1: MatPΔ18C (printed MatPA18C; 1-132) (domain or fragment, E. coli, UniProt P0A8N0 1-132, looked up)
chain: MKYQQLENLESGWKWKYLVKKHREGELITRYIEASAAQEAVDVLLSLENEPVLVNGWIDKHMNPELVNRMKQTIRARRKRHFNAEHQHTRKKSIDLEFIVWQRLAGLAQRRGKTLSETIVQLIEDAENKEKY
B2: MatP-Cys-His labelled with Cy3B (MatP-Cy3B) (domain or fragment, E. coli, UniProt P0A8N0 1-132, looked up)
chain: B1 chain
modifications: Cy3B maleimide on a single cysteine engineered into the linker between MatP and its 6xHis-tag
B3: MukB short hinge (SH, 667-779) (domain or fragment, E. coli, UniProt P22523 667-779, looked up)
chain: GGSEDQRLNALAERFGGVLLSEIYDDVSLEDAPYFSALYGPSRHAIVVPDLSQVTEHLEGLTDCPEDLYLIEGDPQSFDDSVFSVDELEKAVVVKIADRQWRYSRFPEVPLFG

What was measured:
[1] = target: T1, MukB long hinge (LH, 568-863); assay: ITC
[2] = target: T1, MukB long hinge (LH, 568-863); assay: native MS
[3] = target: T2, MukB, full length, wild type; assay: fluorescence correlation spectroscopy
[4] = target: T3, MukB^KKK (full length MukB D697K D745K …); assay: fluorescence correlation spectroscopy
[5] = target: B1; assay: native MS
native MS = target: the molecule itself; assay: native MS

With B1 the Kd [1] was 0.59 µM, the dH [1] was -70.3 kJ/mol and the “stoichiometry N” value [1] was 0.96. The “stoichiometry N” value [2] was 1 MatP dimer per LH dimer.

B2 gave a Kd [3] of ~0.25 µM and a Kd [4] of ~1.6 µM.

In the case of B3, the binding result [5] is reported as “binds” and the “stoichiometry N” value (native MS) is reported as 2.
